Reference: the nanobody polyreactivity screen of Harvey et al. (2022)

Test: yeast display, Sf9 membrane polyspecificity reagent, FACS + sequencing; frameworks hold sequencing errors
Procedure, shortened: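 A synthetic nanobody library was expressed on Saccharomyces cerevisiae BJ5465 by galactose induction for 36–48 hours. The library was stained for 1 hour at 4 °C with 10% biotinylated, detergent-solubilized Sf9 membrane reagent and enriched with streptavidin microbeads before FACS. Low and high (top ~1%) gates were set on anti-HA fluorescence for expression and streptavidin fluorescence for reagent binding, and each polyreactivity label reflects the gate of origin.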

Sequence | polyreactivity (PSR sort gate)
QVQLVESGGGLVQAGGSLRLSCAASGRIFLLNAMGWYRQAPGKERELVARISSGRTYYADSVKGRFTISRDNAKNTVYLNMNSLKPEDTAVYYCNATVSSSKYRYFYVNPYYYWGQGTQVTVSS | low polyreactivity
QVQLVESGGGLVQAGGSLRLSCAASGRIFLLNPMGWYRKAPGKERELVARISSGRTYYADSVKGRFTISRDNAKNTVYLQMNILKPEDTAVYYCNATVSSSKYRYFYVNPYDYWGQGTQVTVSS | low polyreactivity
QVQLVESGGGLVQAGGSLRLSCAASGRIFLRNAMGWSRQAPRKERELVAAISSSGGRTYYADSVKGRFTISRDNAKNTVYLQMNSLKPEDTAVYYCNARWHGSFDYWGQGTQVTVSS | low polyreactivity
QVQLVESGGGLVQAGGSLRLSCAASGRIFLRNDMGWYRQAPGKERELFAGISSDGSTYYADSVKGRFTISRDNAKNTVYLQMNSLKPEDTAVYYCAAERWGNPTDYQFWRPYDYWGQGTKVTVSS | low polyreactivity
QVQLVESGGGLVQAGGSLRLSCAASGRIFLRNDMGWYRQAPGKERELVAGISSDGSTYYADSVKGRFTISRDNAKNTVYLQMNSLKPEDTAVYYCAAERWGNPTDYQFWRPYDYWGQGTQVTVSS | low polyreactivity
QVQLVESGGGLVQAGGSLRLSCAASGRIFLRYALGWYRQAPGKEREWVAVITWSGGSTNYADSVKGRFTISRDNAKNTVYLQMNSLKPEDTAVYYCAVDNTGRSWPYDYWGQGTQVTVSS | low polyreactivity
QVQLVESGGGLVQAGGSLRLSCAASGRIFLSNAMGRYRQAPRKDRELVAAISWTGGSTYYADSVKGRFTISRDNAKNTVYLQMNSLKPEDTAVYYCAASTVGQTYSYYVDTYDYWGQGTQVTVSS | low polyreactivity
QVQLVESGGGLVQAGGSLRLSCAASGRIFLSNGMGWYRQAPGKERELVAGITTGGGDSTYYADSVKGRFTISRDNAKNTVYLQMNSLKPEDTAVYYCNADSVYAGFDYWGQGTQVTVSS | low polyreactivity
QVQLVESGGGLVQAGGSLRLSCAASGRIFLSYAMGWYRQAPGKERELVAAIRSTGTRTYYADSVKGRFTISRDNAKNTVYLQMNSLKPEDTAVYYCAVGDYGLWSYDYWGQGTQVTVSS | low polyreactivity
QVQLVESGGGLVQAGGSLRLSCAASGRIFLSYTMGWYRQAPGKERELVAAISRGGRTYYADSVKGRFTISRDNAKNTVYLQMNSLKPEDTAVYYCAKKYGRYGSLRGRTIDDYWGQGTQVTVSS | low polyreactivity
QVQLVESGGGLVQAGGSLRLSCAASGRIFLVNAMGWDRQAPGKERELVAAINFISGSTYYADSVKGRFTISRDNAKNTVYLQMNSLKPEDTAVYYCAAYSYWSYVQRYNLEYDYWGQGTQVTVSS | low polyreactivity
QVQLVESGGGLVQAGGSLRLSCAASGRIFLVYAMGWYIQAPGKERDLVASISSRGSSTNYADSVKGRFTISRDNANNTDYLQMNSLKPEDTAVYYCAAGVYRPRYQSTAYDYWGQGTQVTVSS | high polyreactivity
QVQLVESGGGLVQAGGSLRLSCAASGRIFLVYAMGWYRQAPGKERELVAAISWRGGRTYYADSVKGRFTISRDNAKNTVYLQMNILKPEDTAVYYCAAASKYSQFEYDYWGHGTQVTVSS | high polyreactivity
QVQLVESGGGLVQAGGSLRLSCAASGRIFLVYAMGWYRQAPGKERELVAAISWRGGRTYYADSVKGRFTISRDNAKNTVYLQMNSLKPEDTAVYYCAAASKYSQFEYDYWGQGTQVTVSS | high polyreactivity
QVQLVESGGGLVQAGGSLRLSCAASGRIFLVYVMGWYRQAPAKERELVAANSWSGGSTYYADSVKGRFTISRDNAKNTVYLQMNSLKPEDTAVYYFAAYYRGRNFDYWGQATQVTVSS | high polyreactivity
QVQLVESGGGLVQAGGSLRLSCAASGRIFLWNAMGWYRPAPGKERELVAGISWRGSSTYYADSVKGRFTISRDNAKNTVYLQMNSLKPEDTAVYYCAARTRGGRGYGMYYWGQGTQVTVSS | high polyreactivity
QVQLVESGGGLVQAGGSLRLSCAASGRIFLWYAMGWYRQAPGKERELVAAISWDTGNTYYADSVKGRFTISRDNAKNTVYLQINSLKPEDTAVYYCNADNYEWGNNYGYWGQGTQVTVSS | low polyreactivity
QVQLVESGGGLVQAGGSLRLSCAASGRIFLWYAMGWYRQAPGKERELVAAIWRGGSTYYADSVKGRFTISRDNAKNTVYLLMNSLKPEDTAVYYCAAEDVYFGYDYWGQGTQVTVSS | low polyreactivity
QVQLVESGGGLVQAGGSLRLSCAASGRIFLWYAMGWYRQAPGKERELVAVITGGGSTNYADSVKGRFTISRDNAKNTVYLQMNSLKPEDTAVYYCATEGYGHGGETDGGVYSDLGYWGQGTQVTVSS | low polyreactivity
QVQLVESGGGLVQAGGSLRLSCAASGRIFLYYAMGWYRQAPGKERELVAAIDSSGGNTNYADSVKGRFTISRDNAKNTVYLQMNSLKPEDTAVYYCAADFYVSADRWPNYDYWGHGTQVTVSS | low polyreactivity
QVQLVESGGGLVQAGGSLRLSCAASGRIFLYYAMGWYRQAPGKERELVAAITSSGGDTYYADSVKGRFTISRDNAKNTVYLQMNSLKPEDTAVYYCAALGGRYRASTYGYWGQGTQVTVSS | high polyreactivity
QVQLVESGGGLVQAGGSLRLSCAASGRIFLYYAMGWYRQAPGKERELVAAITSSGGGTYYADSVKGRFTISRDNAKNTVYLQMNSLKPEDTAVYYCNKAGPYYGYPHYLFYYWGQGTQVTVSS | high polyreactivity
QVQLVESGGGLVQAGGSLRLSCAASGRIFLYYAMGWYRQAPGKERELVAAITSSGGGTYYADSVKGRFTISRDNAKNTVYLQMNSLKPLDTAVYYCAARRRSQWRYYYWGQGTQVTVSS | high polyreactivity
QVQLVESGGGLVQAGGSLRLSCAASGRIFLYYTMGWYRQAPGKERELVAAITRSGGSTYYADSVKGRFTISRDNAKNTVYLQMNSLKPEDTAVYYCNRAYVRYVPMNYWGQGTQVTVSS | high polyreactivity
QVQLVESGGGLVQAGGSLRLSCAASGRIFNAYAMGGYRQAPGKERELVAAISGGGRTYYADSVKGRFTISRDNAKNTVYLQMNSLKPEDTAVYYCAADSPTQSTLGKYDYWGQGTQVTVSS | high polyreactivity
QVQLVESGGGLVQAGGSLRLSCAASGRIFNAYAMGWYRPAPGKERELVAAISSIGGRTYYADSVKGRFTISRDNAKNTVYLQMNSLKPVDTAVYYCAADWSYVRYYYWGQGTQVTVSS | high polyreactivity
QVQLVESGGGLVQAGGSLRLSCAASGRIFNFNGMGWYRQAPGKERELVAAITSGGSTYYADSVKGRFTISRDNAKNTVYLQMNSLKPEDTAVYYCAAQNAWWSNGRSYDYWGQGTQVTVSS | low polyreactivity
QVQLVESGGGLVQAGGSLRLSCAASGRIFNGYTMGWYRQAPGKETEFVATISRSGGSTYYADSVKGRFTISRDHAKNTVYLQMNSLKPEDSAVYYCAKTYPAKWEYDYWGQGTQVTVSS | low polyreactivity
QVQLVESGGGLVQAGGSLRLSCAASGRIFNHYAMGWYRQAPGKERELVATISATGGSTYYADSVKGRFTISRDNAKNTVYLQMNSLNPEDTAVYYCNAGHLWYWRTRSARRVGMVYWGQGTQVTVSS | low polyreactivity
QVQLVESGGGLVQAGGSLRLSCAASGRIFNLYAMGWYRQAPGKERDLVAAINWSGDRTYYADSVKGRFTISRDNAKNTVYLQMNSLKPDDTAVYYCNADGLEIERYAYWYVFLGYDYWGQGTQVTVSS | low polyreactivity
